Data from patent EP4375293A1 (Max-Planck-Gesellschaft zur Förderung der Wissenschaften …, dated 2024).

B1: Ma28H11 (VHH)
VHH: QVQLVESGGGLVQPGGSLRLSCATSGLTLDHYAIGWFLQAPGKEREGVACVSDDERSLYAPSVMGRFSISRDNAKKTFYLEMNSLKPEDTGVYYCASGPVVPGTLCRIPTVLGYDDWGQGTQVTVSS
notes: Monomeric VHH; also called M28H11
B2: Ma16B06 (VHH)
VHH: QVQLVESGGGLVRTGGSLRLSCAASGSILQIWAMKWYRQAPGLQREWIATIPNSGEPFYASSVEGRFTGSRENEETVYLYLNNLEPEDTAVYYCEVNEGVPVREYWGQGTQVTVSS
notes: Monomeric VHH; also called VHH Ma16B06
B3: Ma28D01 (VHH)
VHH: QVQLVESGGGLVQPGGSLRLSCVVSELGLDYYQIGWFRQAPGKEREGVSCFRSSDEIRYYADSVKGRFTTFRDNAGTTVYLQMNSLKPEDTGVYYCAVAPQTYYHGTWYGECAAAGMDSWGKGTQVTVSS
notes: Monomeric VHH
B4: Ma28F04 (VHH)
VHH: QVQLVESGGGLVQPGGSLRLSCVVSDLGLDYYQIGWFRQAPGKEREGVSCFRSSDEIRYYADPVKGRFTTFRDNAGTTVYLQMNSLKPEDTGVYYCAVAPQTYYHGTWYGECAAAGMDSWGKGTLVTVSS
notes: Monomeric VHH

What was measured:
[1] = target: SARS-CoV-2 Delta variant spike protein (SARS-CoV-2 (Delta variant)); assay: cell-based or functional assay
[2] = target: SARS-CoV-2 Omicron BA.1 variant spike protein (SARS-CoV-2 (Omicron BA.1 variant)); assay: cell-based or functional assay
[3] = target: T1, SARS-CoV-2 Delta RBD (Delta_RBD-Avi-His) (SARS-CoV-2 (Delta variant)); assay: BLI, biotinylated RBD, mass transport model fit
[4] = target: SARS-CoV-2 Omicron BA.1 RBD (Omicron_BA.1_RBD-AviHis) (SARS-CoV-2 (Omicron BA.1 variant)); assay: BLI, biotinylated RBD, mass transport model fit
[5] = target: SARS-CoV-2 Omicron BA.2.75 RBD (Omicron_BA.2.75_RBD-AviHis) (SARS-CoV-2 (Omicron BA.2.75 variant)); assay: BLI, biotinylated RBD, mass transport model fit
[6] = target: SARS-CoV-2 Omicron BA.5 RBD (Omicron_BA.5_RBD-AviHis) (SARS-CoV-2 (Omicron BA.5 variant)); assay: BLI, biotinylated RBD, mass transport model fit
[7] = target: T1, SARS-CoV-2 Delta RBD (Delta_RBD-Avi-His); assay: BLI, biotinylated RBD

Row | Binder | Lowest virus neutralizing concentration (pM; IC99) [1] [pM] | Lowest virus neutralizing concentration (pM; IC99) [2] [pM] | Kd [3] [nM] | Kd [4] [nM] | Kd [5] [nM] | Kd [6] [nM] | binding result [7]
1 | B1 | 50 | > 5000 | 0.03 | 30 | 0.6 | 0.3 | 
2 | B2 | > 5000 | 50 |  | 0.04 | 0.06 | 20 | no binding
3 | B3 |  | 1700 | 0.015 | 0.2 | 0.3 | 0.03 | 
4 | B4 | 500 | 500 | 0.03 | 0.15 | 0.2 | 0.03 | 
